Reference: IntAct's records for PubMed 23954233

B1: F-box DNA helicase 1 (Homo sapiens), Q8NFZ0 (parent)
chain: MRRFKRKHLTAIDCQHLARSHLAVTQPFGQRWTNRDPNHGLYPKPRTKRGSRGQGSQRCIPEFFLAGKQPCTNDMAKSNSVGQDSCQDSEGDMIFPAESSCALPQEGSAGPGSPGSAPPSRKRSWSSEEESNQATGTSRWDGVSKKAPRHHLSVPCTRPREARQEAEDSTSRLSAESGETDQDAGDVGPDPIPDSYYGLLGTLPCQEALSHICSLPSEVLRHVFAFLPVEDLYWNLSLVCHLWREIISDPLFIPWKKLYHRYLMNEEQAVSKVDGILSNCGIEKESDLCVLNLIRYTATTKCSPSVDPERVLWSLRDHPLLPEAEACVRQHLPDLYAAAGGVNIWALVAAVVLLSSSVNDIQRLLFCLRRPSSTVTMPDVTETLYCIAVLLYAMREKGINISNRIHYNIFYCLYLQENSCTQATKVKEEPSVWPGKKTIQLTHEQQLILNHKMEPLQVVKIMAFAGTGKTSTLVKYAEKWSQSRFLYVTFNKSIAKQAERVFPSNVICKTFHSMAYGHIGRKYQSKKKLNLFKLTPFMVNSVLAEGKGGFIRAKLVCKTLENFFASADEELTIDHVPIWCKNSQGQRVMVEQSEKLNGVLEASRLWDNMRKLGECTEEAHQMTHDGYLKLWQLSKPSLASFDAIFVDEAQDCTPAIMNIVLSQPCGKIFVGDPHQQIYTFRGAVNALFTVPHTHVFYLTQSFRFGVEIAYVGATILDVCKRVRKKTLVGGNHQSGIRGDAKGQVALLSRTNANVFDEAVRVTEGEFPSRIHLIGGIKSFGLDRIIDIWILLQPEEERRKQNLVIKDKFIRRWVHKEGFSGFKRYVTAAEDKELEAKIAVVEKYNIRIPELVQRIEKCHIEDLDFAEYILGTVHKAKGLEFDTVHVLDDFVKVPCARHNLPQLPHFRVESFSEDEWNLLYVAVTRAKKRLIMTKSLENILTLAGEYFLQAELTSNVLKTGVVRCCVGQCNNAIPVDTVLTMKKLPITYSNRKENKGGYLCHSCAEQRIGPLAFLTASPEQVRAMERTVENIVLPRHEALLFLVF

Variants of: B1
Conditions: with src_human SRC

Variant | effect of a mutation on the interaction
G774R | decreasing interaction

Variants of: B1
Conditions: with src_human SRC
Remark: another data set of the same source

Variant | effect of a mutation on the interaction
I1030F | disrupting interaction
